In PMC3401642:

Experiments:
[1] = target: HIV-1 subtype A envelope glycoprotein (Env) clone 92RW009 (HIV-1 subtype A)
[2] = target: HIV-1 subtype A envelope glycoprotein (Env) clone Q168.a2 (HIV-1 subtype A)
[3] = target: HIV-1 subtype A envelope glycoprotein (Env) clone Q23.17 (HIV-1 subtype A)
[4] = target: HIV-1 subtype A envelope glycoprotein (Env) clone Q461.e2 (HIV-1 subtype A)
[5] = target: HIV-1 subtype A envelope glycoprotein (Env) clone Q842.d12 (HIV-1 subtype A)
[6] = target: HIV-1 subtype B envelope glycoprotein (Env, gp160) clone AC10.0.29 (HIV-1 subtype B)
[7] = target: HIV-1 subtype B envelope glycoprotein (Env, gp160) clone CAAN5342.A2 (HIV-1 subtype B)
[8] = target: HIV-1 subtype B envelope glycoprotein (Env, gp160) clone PVO.4 (HIV-1 subtype B)
[9] = target: HIV-1 subtype B envelope glycoprotein (Env, gp160) clone QH0692.42 (HIV-1 subtype B)
[10] = target: HIV-1 subtype B envelope glycoprotein (Env, gp160) clone THRO4156.18 (HIV-1 subtype B)
[11] = target: HIV-1 subtype B envelope glycoprotein (Env, gp160) clone WITO4160.33 (HIV-1 subtype B)
[12] = target: HIV-1 subtype C envelope glycoprotein (Env, gp160) clone CAP177.cvl96 (HIV-1 subtype C)
[13] = target: HIV-1 subtype C envelope glycoprotein (Env, gp160) clone CAP206.08J (HIV-1 subtype C)
[14] = target: HIV-1 subtype C envelope glycoprotein (Env, gp160) clone CAP210.E8J (HIV-1 subtype C)
[15] = target: HIV-1 subtype C envelope glycoprotein (Env, gp160) clone CAP228.51J (HIV-1 subtype C)
[16] = target: HIV-1 subtype C envelope glycoprotein (Env, gp160) clone CAP256.F7J (HIV-1 subtype C)
[17] = target: HIV-1 subtype C envelope glycoprotein (Env, gp160) clone CAP261.cvl93 (HIV-1 subtype C)
[18] = target: HIV-1 subtype C envelope glycoprotein (Env, gp160) clone CAP270.cvl44 (HIV-1 subtype C)
[19] = target: HIV-1 subtype C envelope glycoprotein (Env, gp160) clone CAP45.G3J (HIV-1 subtype C)
[20] = target: HIV-1 subtype C envelope glycoprotein (Env, gp160) clone CAP63.A9J (HIV-1 subtype C)
[21] = target: HIV-1 subtype C envelope glycoprotein (Env, gp160) clone CAP63.cvl6GA (HIV-1 subtype C)
[22] = target: HIV-1 subtype C envelope glycoprotein (Env, gp160) clone COT6.15 (HIV-1 subtype C)
[23] = target: HIV-1 subtype C envelope glycoprotein (Env, gp160) clone COT9.6 (HIV-1 subtype C)
[24] = target: HIV-1 subtype C envelope glycoprotein (Env, gp160) clone Du151.2 (HIV-1 subtype C)
[25] = target: HIV-1 subtype C envelope glycoprotein (Env, gp160) clone RP6.6 (HIV-1 subtype C)
[26] = target: HIV-1 subtype C envelope glycoprotein (Env, gp160) clone TM7.9 (HIV-1 subtype C)
[27] = target: HIV-1 subtype C Env clone COT6.15 V295N (HIV-1 subtype C)
[28] = target: HIV-1 subtype C Env clone COT9.6 V295N (HIV-1 subtype C)
[29] = target: HIV-1 subtype C Env clone Du151.2 V295N (HIV-1 subtype C)

Question: For “Scytovirin (from UniProt P86041 1-95) (natural protein)”, which IC50 of neutralisation of Env-pseudotyped virus (TZM-bl assay) [1] is on record?
Answer: 21.8 nM

Question: What about the IC50 of neutralisation of Env-pseudotyped virus (TZM-bl assay) [2] of the same molecule?
Answer: 9.4 nM

Question: What about the IC50 of neutralisation of Env-pseudotyped virus (TZM-bl assay) [3] of the same molecule?
Answer: 29.8 nM

Question: And the IC50 of neutralisation of Env-pseudotyped virus (TZM-bl assay) [4]?
Answer: 18.9 nM

Question: And the IC50 of neutralisation of Env-pseudotyped virus (TZM-bl assay) [5]?
Answer: 40.9 nM

Question: What about the IC50 of neutralisation of Env-pseudotyped virus (TZM-bl assay) [6] of the same molecule?
Answer: 24.5 nM

Question: And the IC50 of neutralisation of Env-pseudotyped virus (TZM-bl assay) [7]?
Answer: 188 nM

Question: And the IC50 of neutralisation of Env-pseudotyped virus (TZM-bl assay) [8]?
Answer: 25.2 nM

Question: And the IC50 of neutralisation of Env-pseudotyped virus (TZM-bl assay) [9]?
Answer: 27.3 nM

Question: And the IC50 of neutralisation of Env-pseudotyped virus (TZM-bl assay) [10]?
Answer: 42.6 nM

Question: And the IC50 of neutralisation of Env-pseudotyped virus (TZM-bl assay) [11]?
Answer: 24.8 nM

Question: What about the IC50 of neutralisation of Env-pseudotyped virus (TZM-bl assay) [12] of the same molecule?
Answer: 21.8 nM

Question: What about the IC50 of neutralisation of Env-pseudotyped virus (TZM-bl assay) [13] of the same molecule?
Answer: 113 nM

Question: And the IC50 of neutralisation of Env-pseudotyped virus (TZM-bl assay) [14]?
Answer: 33.1 nM

Question: And the IC50 of neutralisation of Env-pseudotyped virus (TZM-bl assay) [15]?
Answer: 20.1 nM

Question: And the IC50 of neutralisation of Env-pseudotyped virus (TZM-bl assay) [16]?
Answer: 6.7 nM

Question: What about the IC50 of neutralisation of Env-pseudotyped virus (TZM-bl assay) [17] of the same molecule?
Answer: 6.2 nM

Question: And the IC50 of neutralisation of Env-pseudotyped virus (TZM-bl assay) [18]?
Answer: 11.7 nM

Question: And the IC50 of neutralisation of Env-pseudotyped virus (TZM-bl assay) [19]?
Answer: 16.9 nM

Question: What about the IC50 of neutralisation of Env-pseudotyped virus (TZM-bl assay) [20] of the same molecule?
Answer: 29.8 nM

Question: What about the IC50 of neutralisation of Env-pseudotyped virus (TZM-bl assay) [21] of the same molecule?
Answer: 43.8 nM

Question: What about the IC50 of neutralisation of Env-pseudotyped virus (TZM-bl assay) [22] of the same molecule?
Answer: 10.8 nM

Question: And the IC50 of neutralisation of Env-pseudotyped virus (TZM-bl assay) [23]?
Answer: 57.6 nM

Question: And the IC50 of neutralisation of Env-pseudotyped virus (TZM-bl assay) [24]?
Answer: 27.5 nM

Question: What about the IC50 of neutralisation of Env-pseudotyped virus (TZM-bl assay) [25] of the same molecule?
Answer: 11.3 nM

Question: And the IC50 of neutralisation of Env-pseudotyped virus (TZM-bl assay) [26]?
Answer: 12.1 nM

Question: What about the IC50 of neutralisation of Env-pseudotyped virus (TZM-bl assay) [27] of the same molecule?
Answer: 16.1 nM

Question: What about the IC50 of neutralisation of Env-pseudotyped virus (TZM-bl assay) [28] of the same molecule?
Answer: 63 nM

Question: What about the IC50 of neutralisation of Env-pseudotyped virus (TZM-bl assay) [29] of the same molecule?
Answer: 32.5 nM

Question: “Griffithsin (from UniProt P84801 1-121) (natural protein)” was tested. Which IC50 of neutralisation of Env-pseudotyped virus (TZM-bl assay) [1] did it give?
Answer: 1.8 nM

Question: And the IC50 of neutralisation of Env-pseudotyped virus (TZM-bl assay) [2]?
Answer: 3.3 nM

Question: And the IC50 of neutralisation of Env-pseudotyped virus (TZM-bl assay) [3]?
Answer: 1.9 nM

Question: What about the IC50 of neutralisation of Env-pseudotyped virus (TZM-bl assay) [4] of the same molecule?
Answer: 0.12 nM

Question: And the IC50 of neutralisation of Env-pseudotyped virus (TZM-bl assay) [7]?
Answer: 11.7 nM

Question: What about the IC50 of neutralisation of Env-pseudotyped virus (TZM-bl assay) [10] of the same molecule?
Answer: 1.2 nM

Question: And the IC50 of neutralisation of Env-pseudotyped virus (TZM-bl assay) [12]?
Answer: 55.9 nM

Question: And the IC50 of neutralisation of Env-pseudotyped virus (TZM-bl assay) [13]?
Answer: 30.9 nM

Question: What about the IC50 of neutralisation of Env-pseudotyped virus (TZM-bl assay) [14] of the same molecule?
Answer: 0.2 nM

Question: What about the IC50 of neutralisation of Env-pseudotyped virus (TZM-bl assay) [17] of the same molecule?
Answer: 4.2 nM

Question: What about the IC50 of neutralisation of Env-pseudotyped virus (TZM-bl assay) [18] of the same molecule?
Answer: 0.3 nM

Question: What about the IC50 of neutralisation of Env-pseudotyped virus (TZM-bl assay) [20] of the same molecule?
Answer: 23.2 nM

Question: What about the IC50 of neutralisation of Env-pseudotyped virus (TZM-bl assay) [21] of the same molecule?
Answer: 25.7 nM

Question: What about the IC50 of neutralisation of Env-pseudotyped virus (TZM-bl assay) [22] of the same molecule?
Answer: 0.4 nM

Question: And the IC50 of neutralisation of Env-pseudotyped virus (TZM-bl assay) [23]?
Answer: 1.2 nM

Question: What about the IC50 of neutralisation of Env-pseudotyped virus (TZM-bl assay) [24] of the same molecule?
Answer: 1.5 nM

Question: What about the IC50 of neutralisation of Env-pseudotyped virus (TZM-bl assay) [27] of the same molecule?
Answer: 0.06 nM

Question: What about the IC50 of neutralisation of Env-pseudotyped virus (TZM-bl assay) [28] of the same molecule?
Answer: 0.06 nM

Question: What about the IC50 of neutralisation of Env-pseudotyped virus (TZM-bl assay) [29] of the same molecule?
Answer: 0.03 nM

B1: Cyanovirin-N (natural protein)
chain: LGKFSQTCYNSAIQGSVLTSTCERTNGGYNTSSIDLNSVIENVDGSLKWQPSNFIETCRNTQLAGSSELAAECKTRAQQFVSTKINLDDHIANIDGTLKYE
Question: With B1 as the molecule, how does the IC50 of neutralisation of Env-pseudotyped virus (TZM-bl assay) [1] read?
Answer: 1.2 nM

Question: What about the IC50 of neutralisation of Env-pseudotyped virus (TZM-bl assay) [2] of the same molecule?
Answer: 1.4 nM

Question: And the IC50 of neutralisation of Env-pseudotyped virus (TZM-bl assay) [3]?
Answer: 3 nM

Question: And the IC50 of neutralisation of Env-pseudotyped virus (TZM-bl assay) [4]?
Answer: 1.2 nM

Question: And the IC50 of neutralisation of Env-pseudotyped virus (TZM-bl assay) [5]?
Answer: 2.5 nM

Question: What about the IC50 of neutralisation of Env-pseudotyped virus (TZM-bl assay) [6] of the same molecule?
Answer: 0.3 nM

Question: And the IC50 of neutralisation of Env-pseudotyped virus (TZM-bl assay) [7]?
Answer: 16.7 nM

Question: What about the IC50 of neutralisation of Env-pseudotyped virus (TZM-bl assay) [9] of the same molecule?
Answer: 2.5 nM

Question: And the IC50 of neutralisation of Env-pseudotyped virus (TZM-bl assay) [11]?
Answer: 1.5 nM

Question: And the IC50 of neutralisation of Env-pseudotyped virus (TZM-bl assay) [12]?
Answer: 7.5 nM

Question: What about the IC50 of neutralisation of Env-pseudotyped virus (TZM-bl assay) [13] of the same molecule?
Answer: 18 nM

Question: What about the IC50 of neutralisation of Env-pseudotyped virus (TZM-bl assay) [14] of the same molecule?
Answer: 1.2 nM

Question: What about the IC50 of neutralisation of Env-pseudotyped virus (TZM-bl assay) [15] of the same molecule?
Answer: 3.1 nM

Question: What about the IC50 of neutralisation of Env-pseudotyped virus (TZM-bl assay) [16] of the same molecule?
Answer: 1.1 nM

Question: What about the IC50 of neutralisation of Env-pseudotyped virus (TZM-bl assay) [17] of the same molecule?
Answer: 1.8 nM

Question: And the IC50 of neutralisation of Env-pseudotyped virus (TZM-bl assay) [20]?
Answer: 1.8 nM

Question: And the IC50 of neutralisation of Env-pseudotyped virus (TZM-bl assay) [21]?
Answer: 3.1 nM

Question: And the IC50 of neutralisation of Env-pseudotyped virus (TZM-bl assay) [22]?
Answer: 0.9 nM

Question: What about the IC50 of neutralisation of Env-pseudotyped virus (TZM-bl assay) [23] of the same molecule?
Answer: 3.9 nM

Question: What about the IC50 of neutralisation of Env-pseudotyped virus (TZM-bl assay) [24] of the same molecule?
Answer: 2 nM

Question: And the IC50 of neutralisation of Env-pseudotyped virus (TZM-bl assay) [25]?
Answer: 1.1 nM

Question: And the IC50 of neutralisation of Env-pseudotyped virus (TZM-bl assay) [26]?
Answer: 1.1 nM

Question: And the IC50 of neutralisation of Env-pseudotyped virus (TZM-bl assay) [27]?
Answer: 1.1 nM

Question: What about the IC50 of neutralisation of Env-pseudotyped virus (TZM-bl assay) [28] of the same molecule?
Answer: 4.4 nM

Question: And the IC50 of neutralisation of Env-pseudotyped virus (TZM-bl assay) [29]?
Answer: 1.2 nM
